According to paper PMC5773378 (Immunity, 2017):
Where two headings read alike, the source gives them in different places.

B5: human IL-12p40, the p40 subunit of IL-23 (natural protein, UniProt P29460 23-328, looked up)
chain: IWELKKDVYVVELDWYPDAPGEMVVLTCDTPEEDGITWTLDQSSEVLGSGKTLTIQVKEFGDAGQYTCHKGGEVLSHSLLLLHKKEDGIWSTDILKDQKEPKNKTFLRCEAKNYSGRFTCWWLTTISTDLTFSVKSSRGSSDPQGVTCGAATLSAERVRGDNKEYEYSVECQEDSACPAAEESLPIEVMVDAVHKLKYENYTSSFFIRDIIKPDPPKNLQLKPLKNSRQVEVSWEYPDTWSTPHSYFSLTFCVQVQGKSKREKKDRVFTDKTSATVICRKNASISVRAQDRYYSSSWSEWASVPCS

Assays:
[1] = biological target: T1, human IL-12 receptor subunit beta-1 ectodomain (IL-12Rβ1, full ECD) (human, UniProt P42701-1 24-544); assay: ITC
[2] = biological target: T2, human IL-23 receptor ectodomain (IL-23R, full ECD, residues 1-317) (human, UniProt Q5VWK5-1 24-317); assay: SEC-MALLS
T2 sequence (looked up): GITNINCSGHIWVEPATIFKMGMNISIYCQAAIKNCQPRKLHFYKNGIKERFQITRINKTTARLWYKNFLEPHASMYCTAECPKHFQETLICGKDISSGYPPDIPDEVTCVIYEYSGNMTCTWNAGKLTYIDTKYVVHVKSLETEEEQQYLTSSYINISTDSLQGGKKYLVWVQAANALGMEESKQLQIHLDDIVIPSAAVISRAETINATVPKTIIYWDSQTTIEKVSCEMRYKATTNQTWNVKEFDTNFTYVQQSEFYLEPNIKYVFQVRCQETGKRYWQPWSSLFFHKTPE

[3] = biological target: T3, human interleukin-23 (IL-23), heterodimer of IL-23p19 and IL-12p40 (human, UniProt Q9NPF7;P29460); assay: crystal structure
[4] = biological target: T4, human IL-12p40, the p40 subunit of IL-23 (human, UniProt P29460); assay: crystal structure
[5] = biological target: B5; assay: crystal structure
[6] = biological target: T2, human IL-23 receptor ectodomain …; assay: crystal structure
[7] = biological target: T3, human interleukin-23 (IL-23), …; assay: crystal structure; remark: listed apart in the source
[8] = biological target: T4, human IL-12p40, the p40 subunit of IL-23; assay: crystal structure; remark: listed apart in the source
[9] = biological target: T1, human IL-12 receptor subunit beta-1 …; assay: cross-linking
[10] = biological target: T3, human interleukin-23 (IL-23), …; assay: cross-linking

B1: human interleukin-23 (IL-23), heterodimer of IL-23p19 and IL-12p40 (complex)
chain 1: RAVPGGSSPAWTQCQQLSQKLCTLAWSAHPLVGHMDLREEGDEETTNDVPHIQCGDGCDPQGLRDNSQFCLQRIHQGLIFYEKLLGSDIFTGEPSLLPDSPVGQLHASLLGLSQLLQPEGHHWETQQIPSLSPSQPWQRLLLRFKILRSLQAFVAVAARVFAHGAATLSP
chain 2: IWELKKDVYVVELDWYPDAPGEMVVLTCDTPEEDGITWTLDQSSEVLGSGKTLTIQVKEFGDAGQYTCHKGGEVLSHSLLLLHKKEDGIWSTDILKDQKEPKNKTFLRCEAKNYSGRFTCWWLTTISTDLTFSVKSSRGSSDPQGVTCGAATLSAERVRGDNKEYEYSVECQEDSACPAAEESLPIEVMVDAVHKLKYENYTSSFFIRDIIKPDPPKNLQLKPLKNSRQVEVSWEYPDTWSTPHSYFSLTFCVQVQGKSKREKKDRVFTDKTSATVICRKNASISVRAQDRYYSSSWSEWASVPCS
[1]
  Kd: 2000 nM
[2]
  stoichiometry N: 1

B2: Nanobody 22E11 (single domain VHH camelid antibody against human IL-23) (VHH)
VHH: EVQLVESGGGLVQAGGSLRLSCAASGRTFSWSAVGWFRQAPGKEREFVAAIRWSGGSPYYADSVKDRFTISRDNAKNTVYLQMNSLRPEDTAVYLCGETSLFPTSRGSHYDTWGQGTQVTVSS
[3]
  binding result: binds
[4]
  binding result: binds

B3: human IL-23p19, the helical subunit of IL-23 (natural protein, UniProt Q9NPF7 20-189, looked up)
chain: RAVPGGSSPAWTQCQQLSQKLCTLAWSAHPLVGHMDLREEGDEETTNDVPHIQCGDGCDPQGLRDNSQFCLQRIHQGLIFYEKLLGSDIFTGEPSLLPDSPVGQLHASLLGLSQLLQPEGHHWETQQIPSLSPSQPWQRLLLRFKILRSLQAFVAVAARVFAHGAATLSP
[5]
  binding result: binds
[6]
  binding result: binds

B4: Fab fragment of briakinumab (ABT-874) (Fab, V domains shown)
VH: QVQLVESGGGVVQPGRSLRLSCAASGFTFSSYGMHWVRQAPGKGLEWVAFIRYDGSNKYYADSVKGRFTISRDNSKNTLYLQMNSLRAEDTAVYYCKTHGSHDNWGQGTMVTVSS
VL: QSVLTQPPSVSGAPGQRVTISCSGSRSNIGSNTVKWYQQLPGTAPKLLIYYNDQRPSGVPDRFSGSKSGTSASLAITGLQAEDEADYYCQSYDRYTHPALLFGTGTKVTVL
[7]
  binding result: binds
[8]
  binding result: binds

## B5
[9]
  binding result: binds

B6: Fab fragment of ustekinumab (Fab, V domains shown)
VH: EVQLVQSGAEVKKPGESLKISCKGSGYSFTTYWLGWVRQMPGKGLDWIGIMSPVDSDIRYSPSFQGQVTMSVDKSITTAYLQWNSLKASDTAMYYCARRRPGQGYFDFWGQGTLVTVSS
VL: DIQMTQSPSSLSASVGDRVTITCRASQGISSWLAWYQQKPEKAPKSLIYAASSLQSGVPSRFSGSGSGTDFTLTISSLQPEDFATYYCQQYNIYPYTFGQGTKLEIK
[10]
  binding result: binds

B7: Nanobody 124C4 (single domain VHH camelid antibody against human IL-23) (VHH)
VHH: EVQLVESGGGLVQPGGSLRLSCAASGFTLDDYAIAWFRQAPGKEREGVSGIDSGDGSAYYADSVKGRFTISSDNAKNTVYLQMNSLRPEDTAVYYCARVRTGWGLNAPDYAMDYWGKGTLVTVSS
[10]
  binding result: binds

B8: Nanobody 37D5 (single domain VHH camelid antibody against human IL-23) (VHH)
VHH: EVQLVESGGGLVQPGGSLRLSCAASGFTLDYLAIGWFRQAPGKEREGVSCVSSSGQYTYYADSVKGRFTISRDNAESTVYLQMNSLKPEDTAVYYCATDPECYRVRGYYNGEYDYWGQGTQVTVSS
[10]
  binding result: binds

B9: preformed human IL-23:IL-23R binary complex (complex)
chain 1: RAVPGGSSPAWTQCQQLSQKLCTLAWSAHPLVGHMDLREEGDEETTNDVPHIQCGDGCDPQGLRDNSQFCLQRIHQGLIFYEKLLGSDIFTGEPSLLPDSPVGQLHASLLGLSQLLQPEGHHWETQQIPSLSPSQPWQRLLLRFKILRSLQAFVAVAARVFAHGAATLSP
chain 2: IWELKKDVYVVELDWYPDAPGEMVVLTCDTPEEDGITWTLDQSSEVLGSGKTLTIQVKEFGDAGQYTCHKGGEVLSHSLLLLHKKEDGIWSTDILKDQKEPKNKTFLRCEAKNYSGRFTCWWLTTISTDLTFSVKSSRGSSDPQGVTCGAATLSAERVRGDNKEYEYSVECQEDSACPAAEESLPIEVMVDAVHKLKYENYTSSFFIRDIIKPDPPKNLQLKPLKNSRQVEVSWEYPDTWSTPHSYFSLTFCVQVQGKSKREKKDRVFTDKTSATVICRKNASISVRAQDRYYSSSWSEWASVPCS
chain 3: GITNINCSGHIWVEPATIFKMGMNISIYCQAAIKNCQPRKLHFYKNGIKERFQITRINKTTARLWYKNFLEPHASMYCTAECPKHFQETLICGKDISSGYPPDIPDEVTCVIYEYSGNMTCTWNAGKLTYIDTKYVVHVKSLETEEEQQYLTSSYINISTDSLQGGKKYLVWVQAANALGMEESKQLQIHLDDIVIPSAAVISRAETINATVPKTIIYWDSQTTIEKVSCEMRYKATTNQTWNVKEFDTNFTYVQQSEFYLEPNIKYVFQVRCQETGKRYWQPWSSLFFHKTPE
[1]
  Kd: 25 nM
